Measurements reported in article PMC4860841, “eIF2 interactions with initiator tRNA and eIF2B are regulated by post-translational modifications and conformational dynamics” (Cell Discovery, 2015).

B1: eukaryotic initiation factor 2 β-subunit (eIF2β) (natural protein, Saccharomyces cerevisiae, UniProt P09064 1-285, looked up)
chain: MSSDLAAELGFDPALKKKKKTKKVIPDDFDAAVNGKENGSGDDLFAGLKKKKKKSKSVSADAEAEKEPTDDIAEALGELSLKKKKKKTKDSSVDAFEKELAKAGLDNVDAESKEGTPSANSSIQQEVGLPYSELLSRFFNILRTNNPELAGDRSGPKFRIPPPVCLRDGKKTIFSNIQDIAEKLHRSPEHLIQYLFAELGTSGSVDGQKRLVIKGKFQSKQMENVLRRYILEYVTCKTCKSINTELKREQSNRLFFMVCKSCGSTRSVSSIKTGFQATVGKRRRM
modifications: found in the purified protein (Table 1): N-term-ac-S2, pS40, acK89, pS91, pS92, pS112
notes: eIF2 β-subunit, encoded by SUI3 in yeast Saccharomyces cerevisiae; Expressed from plasmid pAV1089 [SUI2 SUI3 6xHisGCD22 URA3]; N-terminal acetylation on S2 implies that the first methionine is removed; also called SUI3; source: S. cerevisiae strain GP3511 overexpressing the three eIF2 subunits
B2: eukaryotic initiation factor 2 α-subunit (eIF2α) (natural protein, Saccharomyces cerevisiae, UniProt P20459 1-304, looked up)
chain: MSTSHCRFYENKYPEIDDIVMVNVQQIAEMGAYVKLLEYDNIEGMILLSELSRRRIRSIQKLIRVGKNDVAVVLRVDKEKGYIDLSKRRVSSEDIIKCEEKYQKSKTVHSILRYCAEKFQIPLEELYKTIAWPLSRKFGHAYEAFKLSIIDETVWEGIEPPSKDVLDELKNYISKRLTPQAVKIRADVEVSCFSYEGIDAIKDALKSAEDMSTEQMQVKVKLVAAPLYVLTTQALDKQKGIEQLESAIEKITEVITKYGGVCNITMPPKAVTATEDAELQALLESKELDNRSDSEDDEDESDDE
modifications: found in the purified protein (Table 1): N-term-ac-S2, pS194, pS292, pS294, pS301
notes: eIF2 α-subunit, encoded by SUI2 in yeast Saccharomyces cerevisiae; Expressed from plasmid pAV1089 [SUI2 SUI3 6xHisGCD22 URA3]; N-terminal acetylation on S2 implies that the first methionine is removed; also called SUI2; source: S. cerevisiae strain GP3511 overexpressing the three eIF2 subunits

Columns and labels:
[1] = biological target: T1, eukaryotic initiation factor 2 γ-subunit (eIF2γ), His-tagged (Saccharomyces cerevisiae, UniProt P32481 1-527, found in the purified protein (Table 1): pT60, acK129, pT137, pS258, pS265, pS312, acK401, acK519); assay: native MS; intact His-tagged eIF2 purified from yeast, buffer exchanged against 500 mM ammonium acetate; QSTAR XL modified for high-mass complexes; tandem MS of the 24+ charge state of intact eIF2; details: both partners purified
T1 construct: eIF2 γ-subunit, encoded by GCD11 in yeast Saccharomyces cerevisiae (the methods print the plasmid's gene as '6xHisGCD22'); also called GCD11; source: S. cerevisiae strain GP3511 overexpressing the three eIF2 subunits
T1 sequence (P32481 whole entry): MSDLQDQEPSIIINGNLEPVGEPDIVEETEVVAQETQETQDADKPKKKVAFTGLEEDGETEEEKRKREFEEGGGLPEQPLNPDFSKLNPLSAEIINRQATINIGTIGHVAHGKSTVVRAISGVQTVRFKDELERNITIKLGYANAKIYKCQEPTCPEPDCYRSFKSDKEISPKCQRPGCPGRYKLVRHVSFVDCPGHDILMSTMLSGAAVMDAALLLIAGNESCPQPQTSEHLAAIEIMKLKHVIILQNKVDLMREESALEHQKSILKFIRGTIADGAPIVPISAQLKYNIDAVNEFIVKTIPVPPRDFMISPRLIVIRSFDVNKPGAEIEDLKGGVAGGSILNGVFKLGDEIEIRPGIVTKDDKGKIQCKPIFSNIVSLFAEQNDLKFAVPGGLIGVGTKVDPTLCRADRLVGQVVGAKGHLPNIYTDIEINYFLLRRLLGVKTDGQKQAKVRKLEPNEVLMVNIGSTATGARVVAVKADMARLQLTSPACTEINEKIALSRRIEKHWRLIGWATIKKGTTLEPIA

[2] = biological target: B2; assay: cross-linking; purified apo eIF2 with a 1:1 mixture of 2.5 mM BS3-d0/d4, 1 h, room temperature; gel, trypsin, LC-MS/MS; also compared with the ternary complex (Met-tRNAi^Met, GDPNP) by BS3-d0 against BS3-d4; details: both partners purified

| Binder | stoichiometry N [1] | binding result [2] |
| --- | --- | --- |
| B1 | 1 | binds |
| B2 | 1 |  |
